The data set in a line: yeast display, Sf9 membrane polyspecificity reagent, FACS + sequencing; frameworks hold sequencing errors. Put shortly:
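In a synthetic yeast display library (Saccharomyces cerevisiae BJ5465), nanobody expression was induced with galactose for 36–48 hours. FACS gates were set low and high (top ~1%) using anti-HA fluorescence for expression and streptavidin fluorescence for binding of the Sf9 membrane reagent. Each polyreactivity label is drawn from the gate of origin.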
On to “QVQLVESGGGLVQAGGSLRLSCAASGSTFRQYAMGWYRQAPGKERELVAAITWRGDNTYYADSVKGRFTISRDNAKNTVYLQMNSLKPEDTAVYYCAARWSYRLYWGYGYWGQGTQVTVSS”, for which the “polyreactivity (PSR sort gate)” value is reported as “low polyreactivity”.

“QVQLVESGGGLVQAGGSLRLSCAASGSTFRQYPMGWYRQAPGKEREMVAAITWRGDNTYYADSVKGRFTISRDNAKKTVYLQMNSLKPEDTAVYYCAARWSYRLYWGYGYWGQGTQVTVSS”: the “polyreactivity (PSR sort gate)” value was “low polyreactivity”.

Consider “QVQLVESGGGLVQAGGSLRLSCAASGSTFRRNAMGWDRQAPGKERELVATISPGARTNYADSVKGRFTISRDNAKNTVYLQMNSLKPEDTAVYYCNAEYTLLYPLYDYWGQGTQVTVSS”, for which the “polyreactivity (PSR sort gate)” value is recorded as “low polyreactivity”.

Consider “QVQLVESGGGLVQAGGSLRLSCAASGSTFRRNAMGWYRPAPGKERELVAAITSTDSTYYADSVKGRFTISRDNAKNTVYLQMNSLKPEDTAVYYCAKGYWWGGQMGYWGQGTQVTVSS”, for which the “polyreactivity (PSR sort gate)” value is given as “low polyreactivity”.

Consider “QVQLVESGGGLVQAGGSLRLSCAASGSTFRRNAMGWYRQAPGKERELVAAISAGGGSTYYADSVKGRFTISRDNAKNTVYLQMNSLKPEDTAVYYCNVAGSGVRRMGYWGQGTQVTVSS”, for which the “polyreactivity (PSR sort gate)” value is “high polyreactivity”.

“QVQLVESGGGLVQAGGSLRLSCAASGSTFRRNAMGWYRQAPGKERELVASISFSGGSTFYADSVKGRFTISRDNAKNTVYLQMNSLKPEDTAVYYCATRYYYSSYEYWGQGTQVTVSS”: the “polyreactivity (PSR sort gate)” value is recorded as “high polyreactivity”.

With “QVQLVESGGGLVQAGGSLRLSCAASGSTFRRNVMGWYRQAPGKERELVAAISRSGGRTYYADSVKGRFTISRDNAKNTVYLQMNSLKPEDTAVYYCNATRAGENPDGGDEYWGQGTQVTVSS”, the “polyreactivity (PSR sort gate)” value is “high polyreactivity”.

Consider “QVQLVESGGGLVQAGGSLRLSCAASGSTFRRYAMGWYRQAPGKERELVAAISSNGGSTYYADSVKGRFTISRDNAKNTVYLQMNSLKPEDTAVYYCAAYRSLDFDYWGQGTQVTVSS”, for which the “polyreactivity (PSR sort gate)” value is listed as “high polyreactivity”.

On to “QVQLVESGGGLVQAGGSLRLSCAASGSTFRRYAMGWYRQAPGKERELVAAITGSGGRTYYADSVKGRFTISRDNAKNTVYLQMNSLIPVDTAVYYCAKEGTFTKGVRLFDYWGQGTQVTVSS”, for which the “polyreactivity (PSR sort gate)” value is recorded as “high polyreactivity”.

Regarding “QVQLVESGGGLVQAGGSLRLSCAASGSTFRRYAMGWYRQAPGKERELVATITSGGRTNYADSVKGRFTISRDNAKNTVYLQMNSLKPEDTAVYYCADRPYFYERSAGYYWGQGTQVTVSS”, the “polyreactivity (PSR sort gate)” value was “high polyreactivity”.

For “QVQLVESGGGLVQAGGSLRLSCAASGSTFRRYTMGWYRQAPGKERELVAAISRSAGSTSYADSVKGRFTISRDNAKNTVYLQMNSLKPEDTAVYYCNARVPLRQYSNYYWGQGTQVTVSS”, the “polyreactivity (PSR sort gate)” value was “high polyreactivity”.

Take “QVQLVESGGGLVQAGGSLRLSCAASGSTFRSNAMGWYRQAPGKERELVAVISTRGGRTYYADSVKGRFTISRDNAKNTVYLQMNSLKPEDTAVYYCNTQISGSPYPYYYWGQGTQVTVSS”: the “polyreactivity (PSR sort gate)” value is “high polyreactivity”.

For the sequence “QVQLVESGGGLVQAGGSLRLSCAASGSTFRSNAMGWYRQAPGKERVLVAAISRSGGSTYYADSVKGRFTISRDNAKNSVYLQMNSLKPEDTAVYYCAGRYSRDPRTGDYGYCGQGTQVTVSS”, the “polyreactivity (PSR sort gate)” value is “low polyreactivity”.

Consider “QVQLVESGGGLVQAGGSLRLSCAASGSTFRSYAMGWYRQAHGKERELVAAITSGGSTYYADSVKGRFTISRDNAKNTVYLQMNSLKPEDTAVYYCNARRRTRNVPGKRLRGGIYVYWGQGTQVTVSS”, for which the “polyreactivity (PSR sort gate)” value is given as “high polyreactivity”.

Consider “QVQLVESGGGLVQAGGSLRLSCAASGSTFRSYAMGWYRQAPGKEWELVAAISGDGSTNYADSVKGRFTISRDNAKNTVYLQMNSLKPEDTAVSYCAKDPGYPAPYYDYYYWGQGTQVTVSS”, for which the “polyreactivity (PSR sort gate)” value was “low polyreactivity”.

Turning to “QVQLVESGGGLVQAGGSLRLSCAASGSTFRTNAMGWYRQAPGKERELVAGITSGTSTNYADSVKGRFTISRDNAKNTVYLQMNSLKPEDTAVYYCNTDRIWYGPEYDYWGQGTQVTVSS”, the “polyreactivity (PSR sort gate)” value was “low polyreactivity”.

With “QVQLVESGGGLVQAGGSLRLSCAASGSTFRTYAMGWYRQAPGTEREFVAVISASGGSTYYADSVKGRFTISRDNAKNTVYLQMNSQKPEDTAVYYCNAGRPRFYRSRWYYYGYGYWGQGTQVTVSS”, the “polyreactivity (PSR sort gate)” value is reported as “high polyreactivity”.

Consider “QVQLVESGGGLVQAGGSLRLSCAASGSTFRVNAMGWYRQAPGKERELVAAISGSGSGTYYADSVKGRFTISRDNAKNTVYLQMNSLKPEDTAVYYCAKVPKSRGYVGGMDYWGQGTQVTVSS”, for which the “polyreactivity (PSR sort gate)” value was “low polyreactivity”.

Consider “QVQLVESGGGLVQAGGSLRLSCAASGSTFRVNGMGWYRQAPGKERELVAVISWSGGSTYYADSVKGRFTISRDNAKNSVYLQMNSLKPEDTAVYYCAAKVKAGAGYHYDYYWGQGTQVTVSS”, for which the “polyreactivity (PSR sort gate)” value is reported as “high polyreactivity”.

As for “QVQLVESGGGLVQAGGSLRLSCAASGSTFRVNVMGWYRQATGKERELVAAITTSGGSTYYADSVKGRFSISRDNAQNTVYFQMNSLKPEDTAVYYCNTTYPSGWGPDMDYWGQGTQVTVSS”, the “polyreactivity (PSR sort gate)” value is listed as “low polyreactivity”.

Take “QVQLVESGGGLVQAGGSLRLSCAASGSTFRVYAMGGDRQAPGKERELVAAITYSGGSTYYADSVKGRFTISRDNAKNTVYLQMNSLKPVDTAVYYCAADGYYGGYNYWGQGTQVTVSS”: the “polyreactivity (PSR sort gate)” value is given as “low polyreactivity”.

On to “QVQLVESGGGLVQAGGSLRLSCAASGSTFRVYAMGWYRQAPGKESELVATISWGGGRTYYADSVKGRFTISRDNAKNTVYLLMNSLKPEDTAVYYCAADQRWTTDQPTAGDYWGQGTQVTVSS”, for which the “polyreactivity (PSR sort gate)” value is recorded as “low polyreactivity”.

As to “QVQLVESGGGLVQAGGSLRLSCAASGSTFRVYAMGWYRQAPRKERELVAAISKSGVSTYYADSVKGRFTISRDNAMNTVYLQMNSLKPEDTAVYYCPVFLGYSRKYDYWGQGTQVTVSS”, the “polyreactivity (PSR sort gate)” value is recorded as “high polyreactivity”.

For “QVQLVESGGGLVQAGGSLRLSCAASGSTFRWYAMGWYRQAPGTERELVAAISVSTGSTYYADSVKGRFTISRDNAKNTVYVQMNTLKPEDTGVYYCNKVYGWRQFDYWGQGTQVTVSS”, the “polyreactivity (PSR sort gate)” value is “high polyreactivity”.

With “QVQLVESGGGLVQAGGSLRLSCAASGSTFRWYTMGWYRQAPGKERELVATISSSTDITYYADSVKGRFTISRDNAKNTVYLQMNSLKPEDTAVYYCAARRVYHYRYYYWGQGTQVTVSS”, the “polyreactivity (PSR sort gate)” value is on record as “high polyreactivity”.

Turning to “QVQLVESGGGLVQAGGSLRLSCAASGSTFRYNAMGWYRQAPGKERELVAAITSGGTTNYADSVKGRFTISRDNAMNTVYLQMNILKPEDTAVYYCGKRGYYWTNLLYFLGYDYWGQGTQVTVSS”, the “polyreactivity (PSR sort gate)” value was “low polyreactivity”.

Turning to “QVQLVESGGGLVQAGGSLRLSCAASGSTFRYNDMGWYIQAPGKERELVDAITRSDSTNYADSVKGRFTISRDNAKNTVYLQMNSLKPEDTAVYYCAARRHYTYGNGPSRGGQMDYWGQGTQVTVSS”, the “polyreactivity (PSR sort gate)” value is listed as “high polyreactivity”.

For “QVQLVESGGGLVQAGGSLRLSCAASGSTFRYNTMGWYRQAPGKEMELVARITSVGSTNYADSVKGRFTISRDNAKNTVYFQMNSLKPEDTAVYYCATTRPIRRTSARYNYWGQGTQVTVSS”, the “polyreactivity (PSR sort gate)” value was “low polyreactivity”.

Turning to “QVQLVESGGGLVQAGGSLRLSCAASGSTFRYNTMGWYRQAPGKERELVAAINISSSSTYYADSVKGRFTISRDNAKNTVYLQMNSLKPEDTAVYYCAKRDYVPIATDENDDYWGQGTQVTVSS”, the “polyreactivity (PSR sort gate)” value is “low polyreactivity”.

For “QVQLVESGGGLVQAGGSLRLSCAASGSTFRYYAMGWSRQAPGKERELVAAISRSGTSTYYADSVKGRFTISRDNAKNTVYLQMNSLKPEDTAVYYCAADWHSKIGKGYDYWGQGTQVTVSS”, the “polyreactivity (PSR sort gate)” value is given as “high polyreactivity”.

Consider “QVQLVESGGGLVQAGGSLRLSCAASGSTFRYYAMGWYRLAPGKERELVAAITASGTSTYYADSVKGRFTISRDNAKNTVYLQMNSLKPEDTAVYYCAARWRYGYYWGQGTQVTVSS”, for which the “polyreactivity (PSR sort gate)” value is “high polyreactivity”.

Turning to “QVQLVESGGGLVQAGGSLRLSCAASGSTFRYYAMGWYRQAPGKERELVAAIDRSGGNTYYADSVKGRFTISRDNAKNTVYLQMYSLKPEDTAVYYCNTASWRAQYYYWGQGTQVTVSS”, the “polyreactivity (PSR sort gate)” value is listed as “high polyreactivity”.

Take “QVQLVESGGGLVQAGGSLRLSCAASGSTFRYYAMGWYRQAPGKERELVAAIRSGGGTYYADSVKGRFTISRDNAKTTVYLQMNSLKPEDTAVYYCAARSYSRRVSYYYWGQGTQVTVSS”: the “polyreactivity (PSR sort gate)” value is given as “high polyreactivity”.

For the sequence “QVQLVESGGGLVQAGGSLRLSCAASGSTFRYYAMGWYRQAPGKERELVAAISARGTSTYYADSVKGRFTISRDNAKNTVYLQMNSLKPEDTAVYYCNDYLHATEYDYWGQGTQVTVSS”, the “polyreactivity (PSR sort gate)” value is recorded as “high polyreactivity”.

For the sequence “QVQLVESGGGLVQAGGSLRLSCAASGSTFRYYAMGWYRQAPGKERELVAAISGSGGRTYYADSVKGRFTISRDNAKNTVYLQMYSLKPEDTAVYYCNTRGRRTDYDYWGQGTQVTVSS”, the “polyreactivity (PSR sort gate)” value is listed as “high polyreactivity”.

For “QVQLVESGGGLVQAGGSLRLSCAASGSTFRYYAMGWYRQAPGKERELVAAISRSGTSTYYADSVKGRFTISRDNAKKTVYLQMNSLKPEDTAVYYCAADWHSKIGKGYDYWGQGTQVTVSS”, the “polyreactivity (PSR sort gate)” value is recorded as “high polyreactivity”.

For “QVQLVESGGGLVQAGGSLRLSCAASGSTFRYYAMGWYRQAPGKERELVAAITKNGGSTYYADSVKGRFTISRDNAKNTVYLQMNSLKPEDTAVYYCADQYSYSGWYYVSYYYWGQGTQVTVSS”, the “polyreactivity (PSR sort gate)” value is listed as “high polyreactivity”.

Consider “QVQLVESGGGLVQAGGSLRLSCAASGSTFRYYAMGWYRQAPGKERELVAGICSGGTTKYADSVKGRFTISRDNAKNTVYLQMNSLKPEDSAVYYCAARFRRTRVTYYYWGQGTQVTVSS”, for which the “polyreactivity (PSR sort gate)” value is given as “high polyreactivity”.

As for “QVQLVESGGGLVQAGGSLRLSCAASGSTFRYYAMGWYRQAPGKERELVAVISTSGNTYYADSVKGRFTISRDNAKNTVYLQMNSLKPEDTAVYYCAARGVGGQISQEYDYWGQGTQVTVSS”, the “polyreactivity (PSR sort gate)” value is listed as “low polyreactivity”.

In the case of “QVQLVESGGGLVQAGGSLRLSCAASGSTFRYYAMGWYRQAPGKEREMVAAISTSGGRTYYADSVKGRFTISRDNAKNTVYLQLNSLKPEDTAVYYCNARESRGYSYQTWKYYYWGQGTQVTVSS”, the “polyreactivity (PSR sort gate)” value is recorded as “high polyreactivity”.

In the case of “QVQLVESGGGLVQAGGSLRLSCAASGSTFRYYGMGWYRQAPGKERELVAAISTGGRTNYADSVKGRFTISRDNAKNTVYLQMNSLKPEDTAVYYCAADFLSPAYRPSWYRFDYWGQGTQVTVSS”, the “polyreactivity (PSR sort gate)” value is “low polyreactivity”.

Values taken from the nanobody polyreactivity screen of Harvey et al. (2022).
